Assay results as given in US20250135022A1, “METHODS FOR THE USE OF A B7-H3 ANTIBODY-DRUG CONJUGATE IN COMBINATION WITH A PD-1 X CTLA-4 BISPECIFIC MOLECULE” (MACROGENICS, INC., priority 2022, published 2025).

Target: T1, B7-H3 of cynomolgus monkeys (Macaca fascicularis, UniProt A0A7N9CYV2)
T1 sequence (A0A7N9CYV2 29-534): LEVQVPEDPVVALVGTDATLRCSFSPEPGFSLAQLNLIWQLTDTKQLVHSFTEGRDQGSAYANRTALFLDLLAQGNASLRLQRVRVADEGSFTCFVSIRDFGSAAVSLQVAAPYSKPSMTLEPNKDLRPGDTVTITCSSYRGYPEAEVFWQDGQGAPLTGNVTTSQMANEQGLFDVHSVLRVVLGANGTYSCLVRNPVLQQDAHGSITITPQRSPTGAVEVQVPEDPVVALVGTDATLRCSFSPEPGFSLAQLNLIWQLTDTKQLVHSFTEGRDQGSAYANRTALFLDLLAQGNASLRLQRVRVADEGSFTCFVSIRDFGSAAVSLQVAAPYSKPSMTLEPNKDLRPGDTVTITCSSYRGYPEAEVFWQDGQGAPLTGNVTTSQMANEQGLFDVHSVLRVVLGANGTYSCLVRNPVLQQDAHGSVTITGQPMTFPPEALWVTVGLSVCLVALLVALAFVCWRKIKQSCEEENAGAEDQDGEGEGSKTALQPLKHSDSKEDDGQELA
Assay: Cross-reactivity of anti-B7-H3 antibody
Assay type: binding

B1: mAb-A: anti-B7-H3 antibody isolated from hybridoma cells; murine VL SEQ ID NO:15, VH SEQ ID NO:16 (antibody, V domains shown)
VH: EVQQVESGGDLVKPGGSLKLSCAASGFTFSSYGMSWVRQTPDKRLEWVATINSGGSNTYYPDSLKGRFTISRDNAKNTLYLQMRSLKSEDTAMYYCARHDGGAMDYWGQGTSVTVSS
VL: DIQMTQSPASLSVSVGETVTITCRASESIYSYLAWYQQKQGKSPQLLVYNTKTLPEGVPSRFSGSGSGTQFSLKINSLQPEDFGRYYCQHHYGTPPWTFGGGTNLEIK
modifications: Synthetic: amino acid sequence of the VH Domain of anti-B7-H3 mAb-A; Synthetic: amino acid sequence of the VL Domain of the murine anti-B7-H3 antibody mAb-A
  cross-reactivity with B7-H3 of cynomolgus monkeys: cross-reactive
